# In the Immune Epitope Database (IEDB):
# How the values were obtained:
# HLA-A*02:01 [1] = test: IEDB peptide-MHC binding, purified MHC/competitive/radioactivity; ≥ and ≤ were set here for values at or beyond the usual limits of such assays
# HLA-C*12:03 = test: IEDB peptide-MHC binding, purified MHC/direct/fluorescence; filed as Kd, often an IC50 or EC50 that approximates it; ≥ and ≤ were set here for values at or beyond the usual limits of such assays
# HLA-A*02:01 [2] = test: IEDB peptide-MHC binding, purified MHC/competitive/fluorescence; filed as Kd, often an IC50 or EC50 that approximates it; ≥ and ≤ were set here for values at or beyond the usual limits of such assays
# HLA-A*30:01 = test: IEDB peptide-MHC binding, purified MHC/competitive/radioactivity; filed as Kd, often an IC50 or EC50 that approximates it; ≥ and ≤ were set here for values at or beyond the usual limits of such assays; details: source organism: Vaccinia virus WR
# HLA-A*32:01 = test: as above; details: source organism: Vaccinia virus WR
# HLA-B*08:01 [3] = test: as above; details: source organism: Vaccinia virus WR
# HLA-B*15:01 [4] = test: as above; details: source organism: Vaccinia virus WR
# HLA-B*15:03 = test: as above; details: source organism: Vaccinia virus WR
# HLA-A*02:01 [5] = test: IEDB peptide-MHC binding, purified MHC/competitive/fluorescence; ≥ and ≤ were set here for values at or beyond the usual limits of such assays; details: source organism: Zaire ebolavirus
# HLA-B*07:02 [6] = test: as above; details: source organism: Zaire ebolavirus
# HLA-B*08:01 [7] = test: as above; details: source organism: Zaire ebolavirus
# HLA-A*02:03 = test: IEDB peptide-MHC binding, purified MHC/direct/fluorescence; filed as Kd, often an IC50 or EC50 that approximates it; ≥ and ≤ were set here for values at or beyond the usual limits of such assays; details: source organism: Zaire ebolavirus
# HLA-A*02:11 [8] = test: as above; details: source organism: Zaire ebolavirus
# HLA-A*02:12 = test: as above; details: source organism: Zaire ebolavirus
# HLA-A*02:16 = test: as above; details: source organism: Zaire ebolavirus
# HLA-A*02:19 = test: as above; details: source organism: Zaire ebolavirus
# HLA-A*03:01 = test: as above; details: source organism: Zaire ebolavirus
# HLA-A*23:01 = test: as above; details: source organism: Zaire ebolavirus
# HLA-A*24:03 = test: as above; details: source organism: Zaire ebolavirus
# HLA-A*29:02 = test: as above; details: source organism: Zaire ebolavirus
# HLA-A*68:02 = test: as above
# HLA-B*07:02 [9] = test: as above
# HLA-A*26:01 = test: IEDB peptide-MHC binding, purified MHC/competitive/fluorescence; filed as Kd, often an IC50 or EC50 that approximates it; ≥ and ≤ were set here for values at or beyond the usual limits of such assays; details: source organism: Zaire ebolavirus
# HLA-B*15:01 [10] = test: as above; details: source organism: Zaire ebolavirus
# HLA-B*15:17 = test: as above
# HLA-B*18:01 [11] = test: as above; details: source organism: Zaire ebolavirus
# HLA-B*27:03 = test: as above; details: source organism: Zaire ebolavirus
# HLA-B*39:01 [12] = test: as above; details: source organism: Zaire ebolavirus
# HLA-B*46:01 [13] = test: as above
# HLA-B*51:01 = test: as above; details: source organism: Zaire ebolavirus
# HLA-B*57:01 [14] = test: as above
# HLA-A*02:01 [15] = test: IEDB peptide-MHC binding, purified MHC/direct/fluorescence; filed as Kd, often an IC50 or EC50 that approximates it; ≥ and ≤ were set here for values at or beyond the usual limits of such assays; details: source organism: Camelpox virus CMS
# HLA-A*69:01 = test: as above; details: source organism: Camelpox virus CMS
# HLA-B*15:01 [16] = test: as above; details: source organism: Camelpox virus CMS
# HLA-B*18:01 [17] = test: as above; details: source organism: Camelpox virus CMS
# HLA-B*27:05 = test: as above; details: source organism: Camelpox virus CMS
# HLA-B*39:01 [18] = test: as above; details: source organism: Camelpox virus CMS
# HLA-B*40:01 = test: as above; details: source organism: Camelpox virus CMS
# HLA-B*46:01 [19] = test: as above; details: source organism: Camelpox virus CMS
# HLA-B*48:01 = test: as above; details: source organism: Camelpox virus CMS
# HLA-B*58:01 = test: as above
# HLA-A*01:01 = test: IEDB peptide-MHC binding, purified MHC/competitive/fluorescence; filed as Kd, often an IC50 or EC50 that approximates it; ≥ and ≤ were set here for values at or beyond the usual limits of such assays; details: source organism: Variola virus
# HLA-A*26:02 = test: as above; details: source organism: Variola virus
# HLA-B*57:01 [20] = test: IEDB peptide-MHC binding, purified MHC/direct/fluorescence; filed as Kd, often an IC50 or EC50 that approximates it; ≥ and ≤ were set here for values at or beyond the usual limits of such assays; details: source organism: Mycobacterium tuberculosis variant bovis
# HLA-C*03:03 = test: as above; details: source organism: Canarypox virus
# HLA-C*15:02 = test: as above; details: source organism: Canarypox virus
# HLA-A*02:11 [21] = test: IEDB peptide-MHC binding, purified MHC/competitive/fluorescence; filed as Kd, often an IC50 or EC50 that approximates it; ≥ and ≤ were set here for values at or beyond the usual limits of such assays; details: source organism: Canarypox virus
# [22] = source organism: Zaire ebolavirus
# [23] = source organism: Camelpox virus CMS
# [24] = source organism: Mycobacterium tuberculosis variant bovis BCG str. Pasteur 1173P2
# [25] = source organism: Canarypox virus
sequence,measurement,setting,value
CQWGRLWQL,IC50,HLA-A*02:01 [1]; source organism: Homo sapiens,1.43 µM
FIFLKKNEL,Kd,HLA-C*12:03; source organism: Variola virus,1.45 µM
same,Kd,HLA-A*02:01 [2]; source organism: Variola virus,3.02 µM
same,Kd,HLA-A*30:01,0.0439 µM
same,Kd,HLA-A*32:01,12.8 µM
same,Kd,HLA-B*08:01 [3],0.0966 µM
same,Kd,HLA-B*15:01 [4],4.77 µM
same,Kd,HLA-B*15:03,18.5 µM
HAATNFREI,Kd,HLA-C*12:03; source organism: Angomonas deanei,0.025 µM
HPLARTAKV,IC50,HLA-A*02:01 [5],≥ 113 µM
same,IC50,HLA-B*07:02 [6],3.11 µM
same,IC50,HLA-B*08:01 [7],54.5 µM
same,Kd,HLA-A*02:03,≥ 20 µM
same,Kd,HLA-A*02:11 [8],≥ 20 µM
same,Kd,HLA-A*02:12,≥ 20 µM
same,Kd,HLA-A*02:16,≥ 20 µM
same,Kd,HLA-A*02:19,≥ 20 µM
same,Kd,HLA-A*03:01,≥ 20 µM
same,Kd,HLA-A*23:01,≥ 20 µM
same,Kd,HLA-A*24:03,≥ 20 µM
same,Kd,HLA-A*29:02,≥ 20 µM
same,Kd,HLA-A*68:02; [22],≥ 20 µM
same,Kd,HLA-B*07:02 [9]; [22],0.0459 µM
same,Kd,HLA-A*02:01 [2]; [22],≥ 20 µM
same,Kd,HLA-A*26:01,≥ 20 µM
same,Kd,HLA-B*15:01 [10],≥ 20 µM
same,Kd,HLA-B*15:17; [22],≥ 20 µM
same,Kd,HLA-B*18:01 [11],≥ 20 µM
same,Kd,HLA-B*27:03,≥ 20 µM
same,Kd,HLA-B*39:01 [12],≥ 20 µM
same,Kd,HLA-B*46:01 [13]; [22],≥ 20 µM
same,Kd,HLA-B*51:01,0.201 µM
same,Kd,HLA-B*57:01 [14]; [22],≥ 20 µM
LLDVPTAAV,IC50,HLA-A*02:01 [1]; source organism: Homo sapiens,0.01 µM
NLIYRNLHL,IC50,HLA-A*02:01 [1]; source organism: Rhinovirus A,0.2 µM
SSDDIPPRW,Kd,HLA-A*02:01 [15],≥ 20 µM
same,Kd,HLA-A*68:02; [23],≥ 20 µM
same,Kd,HLA-A*69:01,≥ 20 µM
same,Kd,HLA-B*07:02 [9]; [23],≥ 20 µM
same,Kd,HLA-B*15:01 [16],≥ 20 µM
same,Kd,HLA-B*18:01 [17],≥ 20 µM
same,Kd,HLA-B*27:05,≥ 20 µM
same,Kd,HLA-B*39:01 [18],≥ 20 µM
same,Kd,HLA-B*40:01,≥ 20 µM
same,Kd,HLA-B*46:01 [19],≥ 20 µM
same,Kd,HLA-B*48:01,≥ 20 µM
same,Kd,HLA-B*58:01; [23],0.0279 µM
same,Kd,HLA-A*01:01,≥ 20 µM
same,Kd,HLA-A*26:02,≥ 20 µM
same,Kd,HLA-B*15:17; source organism: Variola virus,≥ 20 µM
same,Kd,HLA-B*57:01 [14]; source organism: Variola virus,1.48 µM
VAFYCAGRF,Kd,HLA-B*57:01 [20],0.451 µM
same,Kd,HLA-B*58:01; source organism: Mycobacterium tuberculosis variant bovis,0.112 µM
same,Kd,HLA-C*12:03; [24],0.058 µM
same,Kd,HLA-B*46:01 [13]; [24],0.748 µM
YIIPCILIL,Kd,HLA-C*03:03,0.229 µM
same,Kd,HLA-C*12:03; [25],0.327 µM
same,Kd,HLA-C*15:02,≥ 20 µM
same,Kd,HLA-A*02:01 [2]; [25],0.0594 µM
same,Kd,HLA-A*02:11 [21],0.24 µM
YLDSGIHSGA,IC50,HLA-A*02:01 [1]; source organism: Homo sapiens,0.0835 µM
